Measured values as given in patent publication US20230338431.

Molecular target: cAMP response element-binding protein 1 (CREB1) (UniProt P16220)
Sequence (P16220 whole entry): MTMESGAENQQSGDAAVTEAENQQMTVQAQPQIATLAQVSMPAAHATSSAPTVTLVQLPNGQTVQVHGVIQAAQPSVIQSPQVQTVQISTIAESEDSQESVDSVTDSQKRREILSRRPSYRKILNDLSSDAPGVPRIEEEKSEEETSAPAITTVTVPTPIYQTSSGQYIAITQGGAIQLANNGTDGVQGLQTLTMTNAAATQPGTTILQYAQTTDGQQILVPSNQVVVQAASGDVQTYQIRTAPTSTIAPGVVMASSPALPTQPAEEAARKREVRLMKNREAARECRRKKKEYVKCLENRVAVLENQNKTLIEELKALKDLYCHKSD

protein kinase B (AKT) subunit AKT1
p-CREB1 expression after siRNA against AKT1, AKT2 and AKT3, immunoblotting assay: only AKT1 phosphorylated and activated its downstream effector cAMP response element-binding protein 1 (CREB1)
